# B1: unnamed (parent)
# chain 1: HSQGTFTSDYSKYLDSRRAQDFVQWLMNTKRNRNNIA
# chain 2: RPQGATVSLWETVQKWREYRRQCQRSLTEDPPPATDLFCNRTFDEYACWPDGEPGSFVNVSCPWYLPWASSVPQGHVYRFCTAEGLWLQKDNSSLPWRDLSECEESKRGERSSPEEQLLFLYIIYTVGYALSFSALVIASAILLGFRHLHCTRNYIHLNLFASFILRALSVFIKDAALKWMYSTAAQQHQWDGLLSYQDSLSCRLVFLLMQYCVAANYYWLLVEGVYLYTLLAFSVLSEQWIFRLYVSIGWGVPLLFVVPWGIVKYLYEDEGCWTRNSNMNYWLIIRLPILFAIGVNFLIFVRVICIVVSKLKANLMCKTDIKCRLAKSTLTLIPLLGTHEVIFAFVMDEHARGTLRFIKLFTELSFTSFQGLMVAILYCFVNNEVQLEFRKSWERWRLEHLHIQRDSSMKPLKCPTSSLSSGATAGSSMYTATCQASCS
# Variants of: B1
# Assay: radioligand inhibition binding (competition with 125I-exendin-4(9-39))
# Conditions: read off a plot
row,Variant,log10 ratio
1,chain 2 M181A,-1.5 ΔpKi
2,chain 2 E271A,-0.15 ΔpKi
3,chain 2 M280A,-0.8 ΔpKi
4,chain 2 S200A,-0.35 ΔpKi
5,chain 2 D270A,-1 ΔpKi
6,chain 2 L267A,-0.4 ΔpKi
7,chain 2 E269A,-1.3 ΔpKi
8,chain 2 L356A,-0.8 ΔpKi
9,chain 2 F358A,-1.1 ΔpKi
10,chain 2 D349A,-0.3 ΔpKi
11,chain 2 V264A,-0.25 ΔpKi
12,chain 2 W191A,-0.15 ΔpKi
13,chain 2 L178A,-0.9 ΔpKi
14,chain 2 F362A,-0.15 ΔpKi
15,chain 2 N277A,-1.4 ΔpKi
16,chain 2 E350A,-0.85 ΔpKi
17,chain 2 G272A,0.15 ΔpKi
18,chain 2 G354A,-0.45 ΔpKi
19,chain 2 Y266A,0.1 ΔpKi

row,Variant,log10 ratio
1,chain 2 Y268A,-0.45 ΔpKi
2,chain 2 D192A,-0.2 ΔpKi
3,chain 2 G262A,0.1 ΔpKi
4,chain 2 T184A,-0.05 ΔpKi
5,chain 2 K179A,-0.85 ΔpKi
6,chain 2 I263A,-0.15 ΔpKi
7,chain 2 L284A,-0.85 ΔpKi
8,chain 2 K265A,-1.4 ΔpKi
9,chain 2 T363A,-0.2 ΔpKi
10,chain 2 H189A,0.2 ΔpKi
11,chain 2 W180A,-0.15 ΔpKi
12,chain 2 Q187A,-0.65 ΔpKi
13,chain 2 Y197A,-0.3 ΔpKi
14,chain 2 N279A,-1.4 ΔpKi
15,chain 2 N281A,-0.5 ΔpKi
16,chain 2 T275A,0.4 ΔpKi
17,chain 2 S196A,0.1 ΔpKi
18,chain 2 W274A,-0.1 ΔpKi
19,chain 2 C273A,0.4 ΔpKi

row,Variant,log10 ratio
1,chain 2 Q198A,0.15 ΔpKi
2,chain 2 L195A,-0.5 ΔpKi
3,chain 2 R357A,-0.55 ΔpKi
4,chain 2 D199A,-0.25 ΔpKi
5,chain 2 L361A,-0.85 ΔpKi
6,chain 2 E364A,-0.5 ΔpKi
7,chain 2 I359A,0.05 ΔpKi
8,chain 2 R353A,-0.35 ΔpKi
9,chain 2 R276A,-1.9 ΔpKi
10,chain 2 K360A,-0.9 ΔpKi
11,chain 2 Q188A,-0.05 ΔpKi
12,chain 2 Y182A,-0.3 ΔpKi
13,chain 2 S183A,0.1 ΔpKi
14,chain 2 L194A,-0.15 ΔpKi
15,chain 2 T355A,-0.55 ΔpKi
16,chain 2 S278A,-0.35 ΔpKi
17,chain 2 H351A,-0.4 ΔpKi
18,chain 2 Q190A,0.1 ΔpKi
19,chain 2 Y282A,-1.9 ΔpKi

# — publication PMC4912689, “The Extracellular Surface of the GLP-1 Receptor Is a Molecular Trigger for Biased Agonism” (Cell, 2016)
